# Experimental data: PMC11897886 (Nucleic Acids Research, 2024)
# Tests used:
# Assay in all cases: pull-down
# Dcp2-UBM = biological target: T1, Dcp2-UBM (Saccharomyces cerevisiae, UniProt P53550 434-720)
# T1 sequence: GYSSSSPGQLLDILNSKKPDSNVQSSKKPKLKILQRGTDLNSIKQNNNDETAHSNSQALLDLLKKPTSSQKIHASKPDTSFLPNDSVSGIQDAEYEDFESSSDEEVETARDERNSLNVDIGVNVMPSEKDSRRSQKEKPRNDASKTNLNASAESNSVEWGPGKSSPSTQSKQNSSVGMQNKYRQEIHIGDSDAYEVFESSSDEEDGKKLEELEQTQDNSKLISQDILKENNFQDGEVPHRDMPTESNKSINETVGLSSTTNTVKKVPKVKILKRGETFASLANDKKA
# Upf2-Ct = biological target: T2, Upf2-Ct (Saccharomyces cerevisiae, UniProt P38798 933-1089)
# T2 sequence: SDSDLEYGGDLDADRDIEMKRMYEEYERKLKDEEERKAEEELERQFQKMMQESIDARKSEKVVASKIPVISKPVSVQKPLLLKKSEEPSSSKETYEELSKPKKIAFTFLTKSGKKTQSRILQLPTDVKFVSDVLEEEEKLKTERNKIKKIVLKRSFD
# Upf1-FL;Dcp2-UBM = biological target: T3, Upf1-FL;Dcp2-UBM (Saccharomyces cerevisiae;Saccharomyces …, UniProt P30771;P53550 1-971;434-720, |)
# T3 sequence 1: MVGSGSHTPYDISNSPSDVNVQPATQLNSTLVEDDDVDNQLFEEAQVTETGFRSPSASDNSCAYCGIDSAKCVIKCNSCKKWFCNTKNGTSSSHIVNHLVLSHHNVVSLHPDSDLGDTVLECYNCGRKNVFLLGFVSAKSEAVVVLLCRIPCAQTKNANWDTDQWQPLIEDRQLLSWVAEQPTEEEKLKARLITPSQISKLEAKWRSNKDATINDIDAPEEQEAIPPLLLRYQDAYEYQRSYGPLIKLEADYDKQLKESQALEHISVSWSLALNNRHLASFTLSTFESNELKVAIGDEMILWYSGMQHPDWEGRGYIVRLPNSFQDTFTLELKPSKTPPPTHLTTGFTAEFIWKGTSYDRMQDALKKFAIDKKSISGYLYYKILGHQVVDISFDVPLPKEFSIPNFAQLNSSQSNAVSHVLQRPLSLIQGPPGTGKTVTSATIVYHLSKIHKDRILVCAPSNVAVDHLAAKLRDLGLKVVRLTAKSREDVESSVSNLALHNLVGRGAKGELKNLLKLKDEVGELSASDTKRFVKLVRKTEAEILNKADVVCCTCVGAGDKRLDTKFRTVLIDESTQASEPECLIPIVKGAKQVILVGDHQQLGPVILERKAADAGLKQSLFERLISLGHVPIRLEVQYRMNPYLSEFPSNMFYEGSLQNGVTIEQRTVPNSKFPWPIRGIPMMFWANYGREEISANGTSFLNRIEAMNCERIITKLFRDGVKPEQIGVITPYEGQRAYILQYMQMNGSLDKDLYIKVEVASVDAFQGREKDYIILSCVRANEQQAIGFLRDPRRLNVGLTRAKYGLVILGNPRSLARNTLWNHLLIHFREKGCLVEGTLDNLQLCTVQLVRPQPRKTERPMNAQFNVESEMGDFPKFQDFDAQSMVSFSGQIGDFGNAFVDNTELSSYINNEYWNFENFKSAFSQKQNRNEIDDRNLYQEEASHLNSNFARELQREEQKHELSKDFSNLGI
# T3 sequence 2: T1 sequence
# Upf1-FL;Nmd4;Dcp2-UBM = biological target: T4, Upf1-FL;Nmd4;Dcp2-UBM (Saccharomyces cerevisiae;Saccharomyces …, UniProt P30771;Q12129;P53550 1-971;1-218;434-720, ||)
# T4 sequence 1: T3 sequence 1
# T4 sequence 2: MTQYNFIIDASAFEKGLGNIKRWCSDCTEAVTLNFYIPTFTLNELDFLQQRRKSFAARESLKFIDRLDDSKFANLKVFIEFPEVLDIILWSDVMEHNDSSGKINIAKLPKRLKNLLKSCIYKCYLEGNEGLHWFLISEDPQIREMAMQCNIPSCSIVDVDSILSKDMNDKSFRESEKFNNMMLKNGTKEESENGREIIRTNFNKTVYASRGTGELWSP
# T4 sequence 3: T1 sequence
# Upf1-FL = biological target: T5, Upf1-FL (Saccharomyces cerevisiae, UniProt P30771 1-971)
# T5 sequence: T3 sequence 1
# Upf1-FL;Nmd4 = biological target: T6, Upf1-FL;Nmd4 (Saccharomyces cerevisiae;Saccharomyces …, UniProt P30771;Q12129 1-971;1-218, |)
# T6 sequence 1: T3 sequence 1
# T6 sequence 2: T4 sequence 2
binder,measurement,setting,value
"CGUCCAUCUGGUCAUCUAGUGAUAUCAUCG (ssRNA) [3'-biotinylated RNA (30-mer in Methods, called 33-mer in Results)]",binding result,Dcp2-UBM,no binding
same,binding result,Upf2-Ct,no binding
same,binding result,Upf1-FL;Dcp2-UBM,binds
same,binding result,Upf1-FL;Nmd4;Dcp2-UBM,binds
same,binding result,Upf1-FL,binds
same,binding result,Upf1-FL;Nmd4,binds
